Reference: publication PMC5456377, “Megalin dependent urinary cystatin C excretion in ischemic kidney injury in rats” (PLoS ONE, 2017)

Experiments:
[1] = target: T1, rat megalin (rat, UniProt P98158 26-4660); assay: SPR; rat megalin or cubilin immobilised; human cysC flowed at 20-500 nM (7 concentrations); CaHBS: 10 mM HEPES, 150 mM NaCl, 1.5 mM CaCl2, 1 mM EGTA, pH 7.4; Biacore 3000; Langmuir 1:1 model, global fit; conditions: both partners purified
T1 construct: megalin, rat, purified and immobilised on the SPR chip; probably the native receptor purified from rat kidney (surmised)

[2] = target: T2, rat cubilin (rat, UniProt O70244 33-3623); assay: as above; conditions: both partners purified
T2 construct: cubilin, rat, purified and immobilised on the SPR chip; probably the native receptor purified from rat kidney (surmised)
T2 sequence (O70244 33-3623): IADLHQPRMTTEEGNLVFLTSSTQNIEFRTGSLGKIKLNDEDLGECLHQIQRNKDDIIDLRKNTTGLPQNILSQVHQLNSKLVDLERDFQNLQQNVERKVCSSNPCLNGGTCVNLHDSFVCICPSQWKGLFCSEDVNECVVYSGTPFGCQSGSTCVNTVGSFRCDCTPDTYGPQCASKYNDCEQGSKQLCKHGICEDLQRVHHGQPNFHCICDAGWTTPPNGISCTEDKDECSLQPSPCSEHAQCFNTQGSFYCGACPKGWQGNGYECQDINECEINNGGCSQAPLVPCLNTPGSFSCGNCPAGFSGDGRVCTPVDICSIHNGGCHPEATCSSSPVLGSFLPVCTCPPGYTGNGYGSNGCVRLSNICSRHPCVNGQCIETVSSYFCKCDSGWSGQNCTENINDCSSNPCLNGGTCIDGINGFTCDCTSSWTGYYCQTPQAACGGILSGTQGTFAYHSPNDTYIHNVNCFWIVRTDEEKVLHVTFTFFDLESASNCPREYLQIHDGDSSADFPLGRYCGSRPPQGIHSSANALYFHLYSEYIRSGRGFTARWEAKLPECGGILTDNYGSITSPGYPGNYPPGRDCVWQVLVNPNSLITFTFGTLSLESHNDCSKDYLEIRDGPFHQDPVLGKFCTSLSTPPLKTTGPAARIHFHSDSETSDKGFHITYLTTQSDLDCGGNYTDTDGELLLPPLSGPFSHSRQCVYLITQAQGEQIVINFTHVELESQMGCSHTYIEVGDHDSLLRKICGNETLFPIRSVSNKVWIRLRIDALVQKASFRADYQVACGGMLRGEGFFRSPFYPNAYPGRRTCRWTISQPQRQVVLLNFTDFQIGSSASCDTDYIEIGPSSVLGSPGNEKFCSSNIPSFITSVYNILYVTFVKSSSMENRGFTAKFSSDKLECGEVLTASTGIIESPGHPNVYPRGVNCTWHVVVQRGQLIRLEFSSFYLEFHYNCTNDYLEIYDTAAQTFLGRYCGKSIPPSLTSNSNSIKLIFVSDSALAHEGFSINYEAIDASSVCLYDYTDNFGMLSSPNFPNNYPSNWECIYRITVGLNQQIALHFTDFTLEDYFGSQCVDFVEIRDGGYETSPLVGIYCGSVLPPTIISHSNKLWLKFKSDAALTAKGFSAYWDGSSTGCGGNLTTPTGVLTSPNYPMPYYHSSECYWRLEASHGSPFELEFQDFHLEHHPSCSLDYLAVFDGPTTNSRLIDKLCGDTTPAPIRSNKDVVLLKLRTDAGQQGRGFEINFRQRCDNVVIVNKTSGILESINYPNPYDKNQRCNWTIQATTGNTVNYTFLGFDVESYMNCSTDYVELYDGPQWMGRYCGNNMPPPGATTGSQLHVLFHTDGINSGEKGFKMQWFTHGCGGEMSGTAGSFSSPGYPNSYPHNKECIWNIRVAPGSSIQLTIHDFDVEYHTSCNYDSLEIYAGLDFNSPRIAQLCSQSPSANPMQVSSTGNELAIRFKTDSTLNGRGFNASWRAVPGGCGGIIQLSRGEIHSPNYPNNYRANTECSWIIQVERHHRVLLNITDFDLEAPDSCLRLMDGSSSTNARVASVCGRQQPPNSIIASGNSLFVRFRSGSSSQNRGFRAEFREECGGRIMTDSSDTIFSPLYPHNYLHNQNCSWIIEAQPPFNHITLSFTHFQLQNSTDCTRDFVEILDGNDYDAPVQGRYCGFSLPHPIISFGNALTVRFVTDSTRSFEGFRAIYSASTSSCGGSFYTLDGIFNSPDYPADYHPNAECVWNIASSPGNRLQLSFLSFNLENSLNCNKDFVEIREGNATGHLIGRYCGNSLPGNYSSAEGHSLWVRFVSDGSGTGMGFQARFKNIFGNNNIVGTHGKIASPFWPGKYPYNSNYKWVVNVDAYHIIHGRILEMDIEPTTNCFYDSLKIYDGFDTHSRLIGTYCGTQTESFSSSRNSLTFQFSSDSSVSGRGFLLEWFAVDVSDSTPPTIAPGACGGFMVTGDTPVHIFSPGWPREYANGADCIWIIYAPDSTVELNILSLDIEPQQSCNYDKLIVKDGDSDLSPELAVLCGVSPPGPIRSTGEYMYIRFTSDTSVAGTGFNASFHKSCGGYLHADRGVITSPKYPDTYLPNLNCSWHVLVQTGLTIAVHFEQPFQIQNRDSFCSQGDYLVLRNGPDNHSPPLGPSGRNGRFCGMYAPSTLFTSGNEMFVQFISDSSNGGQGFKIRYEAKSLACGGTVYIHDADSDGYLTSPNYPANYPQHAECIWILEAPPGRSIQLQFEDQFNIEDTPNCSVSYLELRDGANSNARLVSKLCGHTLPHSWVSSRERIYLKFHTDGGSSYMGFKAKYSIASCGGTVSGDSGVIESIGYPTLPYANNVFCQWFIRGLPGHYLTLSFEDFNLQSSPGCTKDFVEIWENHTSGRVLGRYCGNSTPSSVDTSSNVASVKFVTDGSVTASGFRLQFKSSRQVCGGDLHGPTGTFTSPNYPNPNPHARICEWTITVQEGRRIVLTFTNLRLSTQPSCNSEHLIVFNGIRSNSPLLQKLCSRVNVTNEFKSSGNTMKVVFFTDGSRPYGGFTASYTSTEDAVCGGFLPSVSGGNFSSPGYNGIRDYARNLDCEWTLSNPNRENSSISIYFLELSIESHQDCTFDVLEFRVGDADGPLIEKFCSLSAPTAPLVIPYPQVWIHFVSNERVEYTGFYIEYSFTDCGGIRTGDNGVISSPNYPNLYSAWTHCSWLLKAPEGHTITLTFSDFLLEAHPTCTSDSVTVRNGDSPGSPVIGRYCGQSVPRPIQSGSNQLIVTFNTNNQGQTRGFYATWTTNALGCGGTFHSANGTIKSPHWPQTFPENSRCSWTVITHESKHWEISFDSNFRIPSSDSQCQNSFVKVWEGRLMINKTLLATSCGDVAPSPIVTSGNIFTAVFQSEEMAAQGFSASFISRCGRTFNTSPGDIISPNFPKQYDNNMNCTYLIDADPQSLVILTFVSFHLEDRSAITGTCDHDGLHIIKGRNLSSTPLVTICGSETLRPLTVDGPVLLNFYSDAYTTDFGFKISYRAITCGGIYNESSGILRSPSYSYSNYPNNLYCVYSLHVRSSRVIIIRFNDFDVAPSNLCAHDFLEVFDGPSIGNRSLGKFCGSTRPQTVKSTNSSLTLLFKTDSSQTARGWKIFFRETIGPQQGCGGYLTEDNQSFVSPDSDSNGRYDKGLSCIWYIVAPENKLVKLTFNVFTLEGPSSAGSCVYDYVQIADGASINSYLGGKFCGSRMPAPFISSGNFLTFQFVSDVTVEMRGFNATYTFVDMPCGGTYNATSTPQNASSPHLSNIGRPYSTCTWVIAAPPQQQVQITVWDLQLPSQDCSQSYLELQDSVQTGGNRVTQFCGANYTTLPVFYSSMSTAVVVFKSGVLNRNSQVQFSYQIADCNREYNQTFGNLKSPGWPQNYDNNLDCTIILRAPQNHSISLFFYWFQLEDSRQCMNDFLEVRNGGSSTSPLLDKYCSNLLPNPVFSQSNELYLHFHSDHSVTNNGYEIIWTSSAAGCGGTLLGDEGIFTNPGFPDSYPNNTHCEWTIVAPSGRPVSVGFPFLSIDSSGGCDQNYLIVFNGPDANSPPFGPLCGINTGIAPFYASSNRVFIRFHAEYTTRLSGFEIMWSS

Kd [1]: ~32 nM | Kd [2]: ~24 nM
B1: human cystatin C (natural protein, UniProt P01034 27-146, looked up)
chain: SSPGKPPRLVGGPMDASVEEEGVRRALDFAVGEYNKASNDMYHSRALQVVRARKQIVAGVNYFLDVELGRTTCTKTQPNLDNCPFHDQPHLKRKAFCSFQIYAVPWQGTMTLSKSTCQDA
notes: also called cysC
